As usually defined, the IC50 is the concentration at which inhibition is half-maximal. Low readings indicate greater potency in that assay, high ones weaker potency in that assay.

Assay [1] concerns the target CL31d-V5-CD4TMD (human). Briefly: flow cytometry, SV5-PK1-AlexaFluor488 on transduced Jurkat cells; the filing reads it as surface expression level. A general note: In flow cytometry, cells or beads pass a laser one at a time.
The target in assay [2] is scFv(huC825)-V5-CD4TMD. The description is as above.
The target of assay [3] is scFv(muC825)-V5-CD4TMD. The assay is described as above.
In assay [4] the target is CL31d-V5-CD4TMD (human). Briefly: Quantification of the SV5-PK1 western blot signals with LI-COR software. The y axis is fold change [relative]. Background: In western blotting, separated proteins are transferred to a membrane and probed.
Chain of CL31d-V5-CD4TMD (human) (chain, as listed by the source): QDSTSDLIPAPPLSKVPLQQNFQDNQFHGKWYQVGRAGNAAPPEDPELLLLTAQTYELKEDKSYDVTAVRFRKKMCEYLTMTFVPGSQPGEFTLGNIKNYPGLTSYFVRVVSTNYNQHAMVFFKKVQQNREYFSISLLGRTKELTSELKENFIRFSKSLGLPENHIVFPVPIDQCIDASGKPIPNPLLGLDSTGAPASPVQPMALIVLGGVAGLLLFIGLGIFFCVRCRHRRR
The next assay has as its target Colchi-V5-TMD (human). The assay is described as above.
Assay [5] concerns the target DTPA-V5-TMD-mRuby3 (human). As to the kind of experiment: Magnetic-activated cell separation with SV5-PK1 and anti-mouse IgG microbeads, read by flow cytometry for mRuby3. Cells: Jurkat DTPA-V5-TMD-mRuby3.
The target of assay [6] is Colchi-V5-TMD-mRuby3 (human). As to the kind of experiment: Magnetic-activated cell separation with SV5-PK1 and anti-mouse IgG microbeads, read by flow cytometry for mRuby3. Cells: Jurkat Colchi-V5-TMD-mRuby3.
Assay [7] addresses CL31d-V5-CD4TMD (human). As to the kind of experiment: Flow cytometry of lentivirally transduced Jurkat cells stained with Alexa Fluor 488-conjugated SV5-PK1 against the extracellular V5-tag. Target printed as DTPA-TMD.
Assay [8] has as its target DTPA-V5-TMD-mRuby3 (human). Briefly: Flow cytometry of lentivirally transduced Jurkat cells stained with Alexa Fluor 488-conjugated SV5-PK1 against the extracellular V5-tag. Target printed as DTPA-mRuby3.
The next assay has as its target DTPA-miRFP703. As to the kind of experiment: Flow cytometry of lentivirally transduced Jurkat cells stained with Alexa Fluor 488-conjugated SV5-PK1 against the extracellular V5-tag. Target printed as DTPA-miRFP703.
In another assay the target is DTPA-miRFP720. Briefly: Flow cytometry of lentivirally transduced Jurkat cells stained with Alexa Fluor 488-conjugated SV5-PK1 against the extracellular V5-tag. Target printed as DTPA-miRFP720.
The target in assay [9] is CL31d-V5-CD4TMD (human). As to the kind of experiment: Flow cytometry of retrovirally transduced Jurkat cells after FACS sorting of the 10% highest expressing cells. Staining with AlexaFluor488-conjugated SV5-PK1. Target printed as CL31d-V5-TMD.
The target in assay [10] is scFv(huC825)-V5-CD4TMD. Briefly: Flow cytometry of retrovirally transduced Jurkat cells after FACS sorting of the 10% highest expressing cells. Staining with AlexaFluor488-conjugated SV5-PK1. Target printed as huC825-V5-TMD.
The target in assay [11] is scFv(muC825)-V5-CD4TMD. Briefly: Flow cytometry of retrovirally transduced Jurkat cells after FACS sorting of the 10% highest expressing cells. Staining with AlexaFluor488-conjugated SV5-PK1. Target printed as muC825-V5-TMD.
The target of assay [12] is T1, reporter protein DTPA-V5-TMD-mRuby3 (DTPA-R) on Jurkat cells (Homo sapiens, UniProt P80188, C107S/D67E/D97E/I100T/I61A/I75T/K154S/K66P/K70L/K95M/L127F/L56R/L62P/L90R/M71L/N85D/P68L/Q48H/Q69L/R101M/R63P/S119N/S147Q/S88A/T156S/T74Q/V53Q/W99L/Y158L/Y72T).
T1 construct: to Jurkat cells expressing the reporter protein DTPA-V5-TMD-mRuby3 was assessed; expressed in transfected cells; host or cells: Jurkat (human T-cell line), stably modified
T1 sequence (P80188 21-197 with the stated changes): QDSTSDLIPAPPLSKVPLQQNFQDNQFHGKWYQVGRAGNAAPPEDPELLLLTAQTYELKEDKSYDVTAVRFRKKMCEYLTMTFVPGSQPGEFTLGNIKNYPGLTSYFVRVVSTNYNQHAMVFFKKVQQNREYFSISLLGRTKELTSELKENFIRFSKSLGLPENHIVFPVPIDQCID
Briefly: Competition radioligand binding assay (Y-90 radioligand vs Y-89 charged chelator) on Jurkat cells. The note with it: competition of fixed amount of Y-90 radioligand by dilution series of Y-89 charged chelator, FIG. 14A. The method, then: The binding of different radioligands to cells that express the DTPA-R or Colchi-R was shown in binding assays. To this end, Jurkat or PC3 cells that stably express the respective reporter protein of the invention were cultivated, counted and a defined concentration was incubated together with the radioligand in PBS with 2% BSA for 1 h at 37° C. Subsequently, the cells were washed twice with PBS with 2% BSA and finally in the cell-bound fraction and the supernatant fraction the respective radioactivity was detected. (A) NH2-Bn-CHX-A″-DTPA⋅Y-90 binding was competed with a non-radioactive competitor NH2-Bn-CHX-A″-DTPA⋅Y-89. […] (C) A comparative binding assay with ^18F-Py-Ahx-DTPA and ^18F-Py-Glu-Glu-PEG(4)-Colchicine to Jurkat cells expressing either DTPA-R or Colchi-R proving the orthogonal functionality of the two reporter protein & reporter probe pairs.
For the sensitive and specific detection of cells that are labeled with the reporter gene of the invention, the binding between the Anticalin binding protein and the radioligand is of utmost importance. For this reason, the binding of different radioligands to cells that were stably modified with the reporter genes was studies in vitro (FIG. 14). At first, the binding of the ligand domain for the DTPA-R (NH2-CHX-A″-DTPA) to Jurkat cells expressing the reporter protein DTPA-V5-TMD-mRuby3 was assessed. […]

Regarding monoclonal anti-V5-antibody SV5-PK1, the Median Fluorescence Intensity (MFI) in the assay with CL31d-V5-CD4TMD (human) [1] is 6560; in the assay with scFv(huC825)-V5-CD4TMD [2], 1080; with scFv(muC825)-V5-CD4TMD [3], 1130. Further, the fold increase of the quantified V5 band signal, lane 4 over lane 2 (DTPA-V5-TMD-mRuby3) with CL31d-V5-CD4TMD (human) [4] was 3.7 fold. Moreover, the fold increase of the quantified V5 band signal, lane 5 over lane 3 (Colchi-V5-TMD-mRuby3) in the assay with Colchi-V5-TMD (human) stood at 5.4 fold. Also, the results for the % mRuby3-positive cells in the MACS eluate in assay [5] and in [6] were 98.5% and 99%, respectively. In addition, the % mRuby3-positive cells in the MACS flow through in assay [5] is 0.8%; in [6] it was 1.5%. The MFI with CL31d-V5-CD4TMD (human) [7] was 18500; in assay [8] it was 1740; with DTPA-miRFP703, 2330; with DTPA-miRFP720 it was 2550; in the assay with CL31d-V5-CD4TMD (human) [9] it was 20600; with scFv(huC825)-V5-CD4TMD [10], 6200. In the assay with scFv(muC825)-V5-CD4TMD [11], this compound returned an MFI of 7400.

In the case of `Nc1ccc(C[C@H](CN(CC(=O)O)[C@H]2CCCC[C@@H]2N(CC(=O)O)CC(=O)O)N(CC(=O)O)CC(=O)O)cc1` [NH2-CHX-A″-DTPA, [(R)-2-amino-3-(4-aminophenyl)propyl]-trans-(S,S)-cyclohexane-1,2-diaminepentaacetic acid], the half-maximal inhibitory concentration (IC50) in assay [12] is 1.4 nM.

Values taken from patent publication US20230365636A1, “BIOORTHOGONAL REPORTER GENE SYSTEM” (priority 2020, published 2023).
